Consider 2 substances from article PMC10241913.

For assay [1], the target named is UBXD1 UBX extension (269–330), for fluorescence anisotropy (human) (UniProt Q9BZV1). Nature of the assay: fluorescence polarisation; fluorescence anisotropy; Atto594-labeled UBXD1 proteins, p97 constructs titrated; 50 mM NaKPi pH 7.5, 25 °C; all fitted with stoichiometry n = 1. For orientation: In fluorescence polarisation assays a small probe gives low polarisation when free and higher when bound to something large.

For assay [2], the target named is ubiquitin (wild type) (UniProt P0CG48). Description: NMR titration; 1H-15N-HSQC titrations of ubiquitin with UBXD1, UBXD1-eUBX R305A, PUB or the UBX extension; 50 mM sodium potassium phosphate pH 7.5, 25 °C.

One may read the Kd as the concentration at which binding is half-saturated. High values mean weaker binding, low ones tighter binding. In turn, “p97-wt (1–806) (from UniProt P55072 1-806) (enzyme)” gave a Kd in assay [1] of 191 µM.

Turning to “UBXD1-eUBX R305A (from UniProt Q9BZV1 1-441) (domain or fragment)”, in assay [2], the Kd worked out at 155 µM.
